Measured values published in patent US20250381289A1 (Genmab, published 2025).

How the values were obtained:
Human EGFR = target: T1, Human EGFR (human, UniProt P00533); test: ELISA, plate coated with 100 ng/well human EGFR recombinant protein, HRP anti-human Fc, OD450
T1 construct: recombinant protein coated on the ELISA plate; also called human EGFR recombinant protein

[1] = target: T2, cMET on EGFR and cMET co-expressed tumor cell lines (UniProt P08581 25-1390, limits assumed); test: flow cytometry, HCC-827 cells (co-express EGFR and cMET; both arms contribute)
T2 construct: whole, on cells

[2] = target: T3, EGFR on EGFR and cMET co-expressed tumor cell lines (UniProt P00533 25-1210, limits assumed); test: as above
T3 construct: whole, on cells

[3] = target: T2, cMET on EGFR and cMET co-expressed …; test: flow cytometry on NCI-H292 cells (co-express EGFR and cMET), PE anti-human Fc; signal of the whole bispecific, not resolved by arm
Target sequence in this assay (P08581 25-1390 limits assumed): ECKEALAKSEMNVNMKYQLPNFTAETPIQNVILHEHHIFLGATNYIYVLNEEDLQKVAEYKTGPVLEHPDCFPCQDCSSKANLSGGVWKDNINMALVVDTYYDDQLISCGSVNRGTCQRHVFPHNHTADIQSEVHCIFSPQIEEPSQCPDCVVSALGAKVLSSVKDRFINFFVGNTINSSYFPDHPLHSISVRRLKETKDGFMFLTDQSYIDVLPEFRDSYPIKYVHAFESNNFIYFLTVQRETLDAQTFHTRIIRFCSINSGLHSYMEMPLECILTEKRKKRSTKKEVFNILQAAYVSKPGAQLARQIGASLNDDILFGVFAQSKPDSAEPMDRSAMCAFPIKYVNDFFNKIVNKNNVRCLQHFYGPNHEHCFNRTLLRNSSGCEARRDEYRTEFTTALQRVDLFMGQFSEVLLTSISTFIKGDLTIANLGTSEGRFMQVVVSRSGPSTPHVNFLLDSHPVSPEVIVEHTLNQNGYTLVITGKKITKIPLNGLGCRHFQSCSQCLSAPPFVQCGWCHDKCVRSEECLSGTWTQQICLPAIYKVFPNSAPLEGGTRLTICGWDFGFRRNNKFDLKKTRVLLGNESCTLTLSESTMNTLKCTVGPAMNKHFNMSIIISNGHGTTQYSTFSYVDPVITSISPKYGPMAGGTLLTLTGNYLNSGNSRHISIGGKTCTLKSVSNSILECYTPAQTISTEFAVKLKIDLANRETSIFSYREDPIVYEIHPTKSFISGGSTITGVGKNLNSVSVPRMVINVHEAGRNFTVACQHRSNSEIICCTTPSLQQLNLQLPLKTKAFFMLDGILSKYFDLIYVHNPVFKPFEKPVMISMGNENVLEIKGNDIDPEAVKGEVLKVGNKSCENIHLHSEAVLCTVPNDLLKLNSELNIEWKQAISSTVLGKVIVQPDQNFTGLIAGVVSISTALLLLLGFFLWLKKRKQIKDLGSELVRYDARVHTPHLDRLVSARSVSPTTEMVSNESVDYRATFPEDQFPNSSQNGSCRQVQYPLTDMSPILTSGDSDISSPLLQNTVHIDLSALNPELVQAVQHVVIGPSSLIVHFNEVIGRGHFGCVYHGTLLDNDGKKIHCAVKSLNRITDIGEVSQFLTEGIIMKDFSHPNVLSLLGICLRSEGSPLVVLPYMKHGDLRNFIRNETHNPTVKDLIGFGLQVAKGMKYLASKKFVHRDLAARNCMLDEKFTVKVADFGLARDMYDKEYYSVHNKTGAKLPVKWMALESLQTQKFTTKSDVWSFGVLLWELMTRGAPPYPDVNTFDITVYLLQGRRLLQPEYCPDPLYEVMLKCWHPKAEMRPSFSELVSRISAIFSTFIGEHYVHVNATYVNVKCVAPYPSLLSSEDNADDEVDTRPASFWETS

[4] = target: T3, EGFR on EGFR and cMET co-expressed …; test: as above
[5] = target: T2, cMET on EGFR and cMET co-expressed …; test: flow cytometry on EBC-1 cells (co-express EGFR and cMET), PE anti-human Fc; signal of the whole bispecific, not resolved by arm
[6] = target: T3, EGFR on EGFR and cMET co-expressed …; test: as above
[7] = target: T2, cMET on EGFR and cMET co-expressed …; test: flow cytometry, MKN-45 cells (co-express EGFR and cMET; both arms contribute)
Target sequence in this assay (P08581 25-1390 limits assumed): as above

[8] = target: T3, EGFR on EGFR and cMET co-expressed …; test: as above
[9] = target: T2, cMET on EGFR and cMET co-expressed …; test: flow cytometry, EBC-1 cells (co-express EGFR and cMET; both arms contribute)
[10] = target: T3, EGFR on EGFR and cMET co-expressed …; test: as above
human cMET-Fc = target: T4, human cMET-Fc (human, UniProt P08581 25-932); test: blocking ELISA: coated human cMET-Fc, antibody titrated, then human HGF-His (blocked ligand), anti-His-HRP
T4 construct: not shown: Fc part, not described

[11] = target: T2, cMET on EGFR and cMET co-expressed …; test: flow cytometry, A431 cells (co-express EGFR and cMET; both arms contribute)
Target sequence in this assay (P08581 25-1390 limits assumed): as above

[12] = target: T3, EGFR on EGFR and cMET co-expressed …; test: as above
human EGFR-Fc = target: T5, human EGFR-Fc (human, UniProt P00533 25-645); test: blocking ELISA: coated human EGFR-Fc, antibody titrated, then EGF-His (blocked ligand), anti-His-HRP
T5 construct: not shown: Fc part, not described

[13] = target: T2, cMET on EGFR and cMET co-expressed …; test: flow cytometry, EBC-1 cells (co-express EGFR and cMET; both arms contribute); remark: listed apart in the source
Target sequence in this assay (P08581 25-1390 limits assumed): as above

[14] = target: T3, EGFR on EGFR and cMET co-expressed …; test: as above; remark: listed apart in the source
[15] = target: T2, cMET on EGFR and cMET co-expressed …; test: flow cytometry on CAL-27 cells (co-express EGFR and cMET), PE anti-human Fc; signal of the whole bispecific, not resolved by arm
[16] = target: T3, EGFR on EGFR and cMET co-expressed …; test: as above

EC50 (read off the curve) (Human EGFR): ~0.4 nM
EC50 (read off the curve) [1]: ~3 nM
EC50 (read off the curve) [2]: ~3 nM
EC50 (read off the curve) [3]: ~3 nM
EC50 (read off the curve) [4]: ~3 nM
EC50 (read off the curve) [5]: ~2 nM
EC50 (read off the curve) [6]: ~2 nM
EC50 (read off the curve) [7]: ~0.5 nM
EC50 (read off the curve) [8]: ~0.5 nM
EC50 (read off the curve) [9]: ~2 nM
EC50 (read off the curve) [10]: ~2 nM
IC50 (read off the curve) (human cMET-Fc): ~0.8 nM
EC50 (read off the curve) [11]: ~4 nM
EC50 (read off the curve) [12]: ~4 nM
IC50 (read off the curve) (human EGFR-Fc): ~0.2 nM
EC50 (read off the curve) [13]: ~1 nM
EC50 (read off the curve) [14]: ~1 nM
EC50 (read off the curve) [15]: ~3 nM
EC50 (read off the curve) [16]: ~3 nM
B1: Amivantamab (bispecific antibody, human IgG1, kappa)
heavy 1: not shown
light 1: not shown
heavy 2: not shown
light 2: DIQMTQSPSSVSASVGDRVTITCRASQGISNWLAWFQHKPGKAPKLLIYAASSLLSGVPSRFSGSGSGTDFTLTISSLQPEDFATYYCQQANSFPITFGQGTRLEIKRTVAAPSVFIFPPSDEQLKSGTASVVCLLNNFYPREAKVQWKVDNALQSGNSQESVTEQDSKDSTYSLSSTLTLSKADYEKHKVYACEVTHQGLSSPVTKSFNRGEC
notes: Bispecific positive control
